Measurements reported in article PMC9288967 (Chem, 2022).

Key:
Assay in all cases: BLI
[1] = target: spike RBD of the Alpha variant (B.1.1.7) (SARS-CoV-2, Alpha (B.1.1.7), N501Y)
[2] = target: spike RBD of the Epsilon variant (SARS-CoV-2, Epsilon (B.1.429), strain)
[3] = target: spike RBD of the Lambda variant (SARS-CoV-2, Lambda (C.37), strain)

B1: mNb6(WT) (VHH)
VHH: QVQLVESGGGLVQAGGSLRLSCAASGYIFGRNAMGWYRQAPGKERELVAGITRRGSITYYADSVKGRFTISRDNAKNTVYLQMNSLKPEDTAVYYCAADPASPAYGDYWGQGTQVTVSS
Kd [1]: 1.5 nM | Kd [2]: 1.32 ± 0.11 nM | Kd [3]: 2.86 ± 0.77 nM
